Reference: article PMC7160566

B1: LexA_(DBDwt)-SehB-WT [Salmonella enterica serotype Typhimurium] / itself (parent)
chain: MRTHRQMDATSAKKIVDTFSDAVKTVPLMGEDRNDNEYRRALALVEFLVDHDDLENPLFELLCARISEYEKHAPEFKALNQHLEKTPPGVSVLRTLMDQYGLKAADLANELGSKSNVSNILNGRRALTVNHIKALTQRFKLPADAFIE
B2: LexA_(DBDwt)-SehB-WT [Salmonella enterica serotype Typhimurium] / LexA_(DBDmut)-SehA [Salmonella enterica serotype Typhimurium] (parent)
chain 1: B1 chain
chain 2: MHVISRKPFNEAMLMYPNHELALTELLNVLEKKTFTQPEEMKRYIPSLDNFKYRDKWWVIDVSGNSLRLISYIDFRLHKIFVKHIVSHAEYDKLTAYYRGNKE

Variants of: B1
Experiment: LexA-based genetic system for homodimerization (sulA-lacZ reporter, E. coli SU101)
Details: with itself; LB broth at 37°C to an OD600 nm of 1.0; 1 mM IPTG; parent: 130; read off a plot

Row | Variant | response [U/mg]
1 | chain 1 I66A | 680
2 | chain 1 F146A | 110
3 | chain 1 L48A | 770
4 | chain 1 L58A | 650
5 | chain 1 S113A | 110
6 | chain 1 Y38A | 600
7 | chain 1 L135A | 130
8 | chain 1 L127A | 170

Variants of: B2
Experiment: LexA-based genetic system for heterodimerization (sulA-lacZ reporter, E. coli SU202)
Details: with LexA_(DBDmut)-SehA [Salmonella enterica serotype Typhimurium]; LB broth at 37°C to an OD600 nm of 1.0; 1 mM IPTG; parent: 750; read off a plot

Row | Variant | response [U/mg]
9 | chain 1 F146A | 780
10 | chain 1 I66A | 630
11 | chain 1 L48A | 940
12 | chain 1 L58A | 820
13 | chain 1 L127A | 770
14 | chain 1 L135A | 720
15 | chain 1 S113A | 760
16 | chain 1 Y38A | 1100
